In the supplement of paper PMC11908140:

B1: library; numbered along this chain (parent)
chain: MRKPRAAVGSGHRKQAASQEGRQKHAKNNSQAKPSACDGLARQPEEVVLQASVSSYHLFRDVAEVTAFRGSLLSWYDQEKRDLPWRRRAEDEMDLDRRAYAVWVSEVMLQQTQVATVINYYTGWMQKWPTLQDLASASLEEVNQLWAGLGYYSRGRRLQEGARKVVEELGGHMPRTAETLQQLLPGVGRYTAGAIASIAFGQATGVVDGNVARVLCRVRAIGADPSSTLVSQQLWGLAQQLVDPARPGDFNQAAMELGATVCTPQRPLCSQCPVESLCRARQRVEQEQLLASGSLSGSPDVEECAPNTGQCHLCLPPSEPWDQTLGVVNFPRKASRKPPREESSATCVLEQPGALGAQILLVQRPNSGLLAGLWEFPSVTWEPSEQLQRKALLQELQRWAGPLPATHLRHLGEVVHTFSHIKLTYQVYGLALEGQTPVTTVPPGARWLTQEEFHTAAVSTAMKKVFRVYQGQQPGTCMGSKRSQVSSPCSRKKPRMGQQVLDNFFRSHISTDAHSLNSAAQ

Variants of: B1
Assay: 8OG:A repair function score (normalized; synonymous = 0, nonsense = -1) (normalized log-likelihood score); higher = more repair activity (WT-like)
Details: with 8OG:A DNA repair reporter (GFP) in HEK-293 MUTYH KO cells
Method in brief: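 Lentiviral MUTYH cDNA NNN codon-scan libraries were expressed in MUTYH knockout HEK-293 cells with 10 pg/ml doxycycline, and the cells received an 8OG:A GFP repair reporter together with mCherry. At 72 h, viable mCherry+ cells went into GFP+ (repair) or GFP− bins, three replicates per tile, before tile amplicons were sequenced. A repair function score was then built from per-tile Rosace fitness scores, anchored on the synonymous and nonsense distributions. Synonymous medians sat at 0 and nonsense at -1, and variants under 300 counts per million at the start were left out.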
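Note: cells sorted at 72 h after reporter transfection.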

8OG:A repair function score of substitutions, site by site:
S384: N -0.0929 | T -0.0483 | L -0.000173 | Y -0.227 | M -0.315 | F 0.0338 | C -0.202 | Q -0.345 | V -0.0122 | D 0.201 | P -0.218 | R -0.115 | A 0.0362 | I 0.0514 | G 0.138 | E 0.0681 | K -0.0507 | H -0.0587
A391: D -0.378 | E -0.106 | K -0.22 | R -0.136 | Y -0.00342 | W -0.428 | F 0.112 | L -0.101 | T -0.42 | V 0.0327 | I 0.114 | N -0.196 | Q -0.0188 | S -0.175 | M -0.279 | P -0.305 | G -0.201 | C -0.0464
L392: S -1.04 | I 0.0377 | R -1.02 | P -1.09 | Y -0.624 | D -0.872 | V -0.289 | N -1.52 | F -0.647 | K -1.03 | T -0.777 | A -0.807 | C -0.389 | E -1.11 | H -0.963 | W -1.27 | G -0.896 | M -0.171 | Q -0.839
K390: C 0.0921 | Q 0.474 | R -0.126 | S 0.0865 | I -0.265 | D 0.0762 | G -0.0253 | N 0.177 | L -0.0847 | T -0.141 | Y -0.199 | H 0.403 | P -0.262 | W -0.444 | F -0.0738 | E -0.0669 | M -0.0263 | A -0.201 | V -0.164
L396: N -0.969 | Y -1.21 | G -0.426 | K -1.03 | M -0.451 | H -0.886 | D -1.33 | V -0.026 | T -0.534 | I -0.113 | A -0.329 | S -0.52 | R -0.992 | C -0.199 | Q -0.673 | E -1.07 | F -0.431 | P -0.766 | W -0.581
T380: V -0.0828 | Q 0.429 | S 0.139 | P -0.128 | Y 0.0876 | R 0.162 | W -0.271
E395: L -0.23 | V -0.0171 | P -0.546 | K -0.345 | W -0.193 | D -0.291 | A -0.162 | Y -0.0134 | H -0.214 | G -0.277 | M -0.253 | C -0.217 | N -0.302 | S 0.0493 | F -0.476 | R -0.122 | Q -0.276 | T -0.194 | I -0.133
P383: T 0.0211 | R 0.0404 | I -0.14 | M -0.333 | L -0.0053 | N -0.294 | F -0.202 | A 0.0723 | C -0.0431 | Q 0.0121 | S -0.0364 | E 0.0397 | Y -0.0911 | V -0.163 | G -0.0743 | D 0.0298 | H 0.0207 | K -0.1 | W -0.185
Q388: M -0.052 | Y -0.235 | K -0.55 | F -0.281 | S -0.201 | G -0.34 | N 0.244 | R 0.206 | W -0.0946 | I 0.175 | L 0.511 | P 0.145 | T -0.108 | V 0.063 | A 0.235 | E -0.368 | D 0.0946 | H -0.356 | C -0.459
E382: T 0.196 | W 0.0332 | V 0.0267 | Q 0.185 | Y 0.217 | K -0.213 | R -0.0901 | L 0.0169 | A -0.0399 | I -0.0196 | N 0.0107 | S 0.000352 | H 0.042 | P 0.149 | G -0.0795 | F 0.0805 | D -0.0303 | M 0.019 | C -0.16
Q394: V -0.209 | P -0.467 | A 0.04 | C -0.273 | G 0.266 | D 0.0938 | K -0.158 | W -0.387 | H 0.21 | R -0.0703 | T -0.314 | I -0.343 | S -0.0073 | M -0.148 | N 0.483 | Y -0.129 | E 0.261 | F -0.00248 | L -0.0272
L387: M 0.0425 | W -0.0182 | T 0.0729 | D 0.259 | Y -0.136 | K 0.00861 | S 0.154 | Q 0.0651 | P -0.26 | R -0.0979 | E -0.0756 | V -0.0288 | N -0.167 | H -0.744 | F -0.293 | A -0.21 | C -0.171 | G -0.154 | I 0.125
Q397: V 0.0994 | E -0.364 | C -0.496 | A -0.314 | Y -0.0393 | M -0.301 | H -0.717 | F 0.0272 | D -0.0883 | K -0.304 | I -0.624 | W 0.284 | R -0.206 | S -0.159 | L -0.101 | T -0.463 | G -0.363 | P -0.645
L393: Y -0.503 | M 0.297 | P -0.792 | I 0.0907 | D -0.369 | H 0.25 | T -0.383 | N -1.03 | S -0.405 | C -0.00132 | A -0.295 | W -0.266 | K -0.0987 | V -0.37 | R 0.00361 | E -0.395 | F -0.244 | G -0.22 | Q 0.0615
E385: I 0.197 | C 0.258 | H -0.135 | G -0.126 | V -0.0807 | T -0.24 | A 0.0147 | P -0.17 | S -0.167 | N -0.0672 | Y -0.00387 | Q 0.29 | K -0.468 | L 0.0198 | W 0.109 | M 0.0941 | R -0.0734 | F -0.34 | D 0.0907
W381: H 0.26 | T 0.0347 | M 0.148 | D -0.141 | E 0.244 | Q 0.126 | K -0.184 | R -0.0405 | I 0.0761 | S -0.174 | Y -0.0016 | V 0.0132 | C 0.15 | N 0.268 | F -0.181 | P -0.215 | L 0.07 | A 0.0585 | G 0.0649
Q386: F -0.144 | V -0.383 | W 0.351 | T -0.191 | S -0.0961 | H 0.241 | G 0.0232 | L 0.304 | P -0.219 | M 0.34 | D -0.076 | C 0.0105 | N 0.0466 | I 0.129 | A 0.0488 | R 0.0701 | E -0.0345 | K -0.213 | Y 0.41
R389: H -0.403 | N -0.415 | W -0.531 | F -0.357 | Q -0.613 | V 0.273 | S -0.117 | K -0.274 | L -0.04 | G -0.385 | E -0.116 | C -0.13 | Y -0.0127 | P -0.583 | D -0.426 | M -0.236 | T 0.1 | A -0.241 | I 0.462
R398: E -0.407 | G -0.102 | C -0.0446 | H 0.0204 | F 0.214 | A 0.0255 | D -0.249
